± gives the standard deviation of the averaged measurements.
System: Saccharomyces cerevisiae
Assay: protein stability index of tFT-peptide fusion (C-terminal peptide) (PSI (0-1 scale)); higher = more stable (slower turnover)
Conditions: temperature: 30 C
Description: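 MPS profiling in S. cerevisiae of the yeast C-terminome library: the last 12 aa of each annotated ORF are fused to the C-terminus of a sfGFP-mCherry timer, after a GGGS linker. Cells are FACS-sorted into 8 mCherry/sfGFP bins and deep-sequenced. PSI runs from 0 (unstable) to 1 (stable); wild type and das1Δ backgrounds, two technical replicates each.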

[1] = genetic background: das1 deletion

Sequence | protein stability index [1] | protein stability index (genetic background: wild type)
AINYIGNIRRNE [ACO2 C-terminal 12 aa] | 0.7288 ± 0.0043 | 0.727 ± 0.048
SKPALGTCLYEQ [GAL3 C-terminal 12 aa] | 0.676 ± 0.0096 | 0.665 ± 0.03
TFPLVMMKTTYY [YFR009W-A C-terminal 12 aa] | 0.72 ± 0.065 | 0.697 ± 0.044
ELDEIANSLENL [TPM2 C-terminal 12 aa] | 0.694 ± 0.019 | 0.683 ± 0.01
IDSLIENLRFQI [DBF4 C-terminal 12 aa] | 0.7414 ± 0.0037 | 0.678 ± 0.049
EGIFPANYVELV [LSB3 C-terminal 12 aa] | 0.7016 ± 0.0045 | 0.678 ± 0.037
GCGCNCPEMFDA [MTC5 C-terminal 12 aa] | 0.6906 ± 0.0026 | 0.695 ± 0.029
WRSIGSGPIMEF [BUG1 C-terminal 12 aa] | 0.706 ± 0.024 | 0.719 ± 0.031
VFWKLKSRKLRI [MCH1 C-terminal 12 aa] | 0.692 ± 0.0085 | 0.418 ± 0.033
FDELVRKYDTSN [SEC28 C-terminal 12 aa] | 0.718 ± 0.017 | 0.665 ± 0.0076
PVVFHSGPVVWK [YLR415C C-terminal 12 aa] | 0.72 ± 0.034 | 0.6969 ± 0.0058
SLEKLEMSKYGL [YKL033W-A C-terminal 12 aa] | 0.6995 ± 0.0021 | 0.6694 ± 0.004
TDEFDMLIGIDH [COG6 C-terminal 12 aa] | 0.697 ± 0.024 | 0.707 ± 0.025
FHLNAKTRESEI [YDL162C C-terminal 12 aa] | 0.702 ± 0.012 | 0.67952 ± 0.00014
TKNTCIRRLSNQ [YLR031W C-terminal 12 aa] | 0.709 ± 0.018 | 0.698 ± 0.036
GKTAADNIAKLY [OSM1 C-terminal 12 aa] | 0.6764 ± 0.004 | 0.619 ± 0.02
PQMDDHTVISEI [MLO127 C-terminal 12 aa] | 0.745 ± 0.029 | 0.6854 ± 0.006
PGVDVEVVVASN [RPS20 C-terminal 12 aa] | 0.669 ± 0.0061 | 0.702 ± 0.038
KMDKRAKTSDSA [RPL8B C-terminal 12 aa] | 0.698 ± 0.0049 | 0.6802 ± 0.0027
YANLLYKFWNDQ [PCL7 C-terminal 12 aa] | 0.735 ± 0.011 | 0.672 ± 0.021
HLCWLRCACDGP [YLR154C-G C-terminal 12 aa] | 0.716 ± 0.0083 | 0.699 ± 0.022

Sequence | protein stability index [1] | protein stability index (genetic background: wild type)
VCKFASWLFSKI [AMD2 C-terminal 12 aa] | 0.72 ± 0.041 | 0.6687 ± 0.005
NIHQTDYIYARL [BUD16 C-terminal 12 aa] | 0.798 ± 0.031 | 0.708 ± 0.12
KKDKPEGWDRLP [KTR6 C-terminal 12 aa] | 0.728 ± 0.046 | 0.711 ± 0.0073
DENDKVIAIKVV [VPS25 C-terminal 12 aa] | 0.5736 ± 0.00061 | 0.525 ± 0.011
MDETIAPLVGCL [YEL008W C-terminal 12 aa] | 0.724 ± 0.012 | 0.701 ± 0.038
SAGSLEYTARYM [YML012C-A C-terminal 12 aa] | 0.693 ± 0.036 | 0.671 ± 0.0079
KRIDSYIDEMTT [MCO14 C-terminal 12 aa] | 0.723 ± 0.011 | 0.664 ± 0.054
AKDYLLDLAGQA [YBR085C-A C-terminal 12 aa] | 0.71316 ± 0.00065 | 0.659 ± 0.012
NILKVEKRAVLE [PMT1 C-terminal 12 aa] | 0.684 ± 0.013 | 0.659 ± 0.02
HEKPHTVSLRHK [CPR4 C-terminal 12 aa] | 0.717 ± 0.013 | 0.721 ± 0.035
PTTRPYIYEPRK [ELA1 C-terminal 12 aa] | 0.696 ± 0.011 | 0.662 ± 0.017
LDAENNNKCSIM [RHB1 C-terminal 12 aa] | 0.7192 ± 0.003 | 0.758 ± 0.027
GARPPKNEARII [YBL036C C-terminal 12 aa] | 0.694 ± 0.011 | 0.677 ± 0.038
LNFFAEETLDFE [EAT1 C-terminal 12 aa] | 0.734 ± 0.033 | 0.689 ± 0.033
ESISYLFKNYPL [PRS3 C-terminal 12 aa] | 0.717 ± 0.015 | 0.6937 ± 0.0036
RDFFFKNVCVKM [TBS1 C-terminal 12 aa] | 0.623 ± 0.018 | 0.56 ± 0.0057
KHGTMQFYWRKT [YOR225W C-terminal 12 aa] | 0.692 ± 0.0073 | 0.386 ± 0.003
SLSARKINMRKV [KRE9 C-terminal 12 aa] | 0.705 ± 0.033 | 0.644 ± 0.014
EVYLQAIDLIDC [PIR3 C-terminal 12 aa] | 0.6774 ± 0.0063 | 0.6614 ± 0.005
ERRLSDLQQYHI [TMA10 C-terminal 12 aa] | 0.6982 ± 0.0017 | 0.683 ± 0.02
CSGAAGKIYVCD [CDC40 C-terminal 12 aa] | 0.6678 ± 0.005 | 0.723 ± 0.01

Sequence | protein stability index [1] | protein stability index (genetic background: wild type)
YSWMQPESGWNP [YER188W C-terminal 12 aa] | 0.738 ± 0.011 | 0.722 ± 0.032
YASRGTGELWSP [NMD4 C-terminal 12 aa] | 0.7031 ± 0.004 | 0.714 ± 0.0047
SRFLKRKSHHDK [SEC1 C-terminal 12 aa] | 0.687 ± 0.0091 | 0.723 ± 0.049
DECFCLARHEND [TDP1 C-terminal 12 aa] | 0.7114 ± 0.0022 | 0.708 ± 0.023
ILGAYLIDCVCC [YGL069C C-terminal 12 aa] | 0.576 ± 0.045 | 0.644 ± 0.1
FIHDVFFVYFRF [YDL094C C-terminal 12 aa] | 0.176 ± 0.0076 | 0.17 ± 0.006
LEHGLKVRMDEE [HIS7 C-terminal 12 aa] | 0.7083 ± 0.0038 | 0.72 ± 0.06
RALVDAIQLRGV [CGI121 C-terminal 12 aa] | 0.68 ± 0.024 | 0.663 ± 0.0088
NGLKYHRGHSTH [SFP1 C-terminal 12 aa] | 0.703 ± 0.029 | 0.6745 ± 0.0032
FGIWNTDMSVWS [YBL081W C-terminal 12 aa] | 0.699 ± 0.017 | 0.7253 ± 0.0045
DHLHNLAQYWRT [VPS34 C-terminal 12 aa] | 0.697 ± 0.015 | 0.703 ± 0.038
YVVKGWCDSRFL [GIS3 C-terminal 12 aa] | 0.72 ± 0.01 | 0.701 ± 0.016
RQVLDREGLRFG [TRS31 C-terminal 12 aa] | 0.693 ± 0.027 | 0.705 ± 0.0087
LRKNRSLDERYF [YML057C-A C-terminal 12 aa] | 0.7089 ± 0.0023 | 0.6568 ± 0.0029
PLKDLDPNAFRG [YOX1 C-terminal 12 aa] | 0.6861 ± 0.006 | 0.692 ± 0.021
DDTLERAGRIKN [FAD1 C-terminal 12 aa] | 0.69 ± 0.023 | 0.709 ± 0.019
TFFDIRQKFVVV [BOP2 C-terminal 12 aa] | 0.493 ± 0.012 | 0.44744 ± 0.00038
GMLYALYIVLQD [PMP3 C-terminal 12 aa] | 0.301 ± 0.0097 | 0.32 ± 0.0081
SRTPPARRQRHR [CWC22 C-terminal 12 aa] | 0.7133 ± 0.0015 | 0.671 ± 0.012
ASYIQSREICLV [GNT1 C-terminal 12 aa] | 0.6464 ± 0.006 | 0.5859 ± 0.0036
RREKRNKALKER [CGR1 C-terminal 12 aa] | 0.7064 ± 0.0034 | 0.6945 ± 0.0019

Sequence | protein stability index [1] | protein stability index (genetic background: wild type)
GDSDNVVKRLRK [URB1 C-terminal 12 aa] | 0.686 ± 0.018 | 0.707 ± 0.016
TPDVLAAGPQFE [PCK1 C-terminal 12 aa] | 0.7065 ± 0.0036 | 0.6787 ± 0.0029
DLEVKLKKHKKN [TRZ1 C-terminal 12 aa] | 0.733 ± 0.029 | 0.676 ± 0.05
PSAYVLFYERIF [UBP5 C-terminal 12 aa] | 0.71 ± 0.015 | 0.678 ± 0.018
GFIRGSNKFAEV [SMC3 C-terminal 12 aa] | 0.6866 ± 0.0044 | 0.6658 ± 0.0058
FLEIVVPCHCTT [YJL077W-A C-terminal 12 aa] | 0.539 ± 0.0037 | 0.56 ± 0.021
PTWQIVEDIRNT [PMT3 C-terminal 12 aa] | 0.728 ± 0.025 | 0.718 ± 0.038
ESHQDKTEEDIH [OKP1 C-terminal 12 aa] | 0.69113 ± 0.00011 | 0.726 ± 0.035
DIISAFEEYKNA [SEC3 C-terminal 12 aa] | 0.714 ± 0.036 | 0.685 ± 0.026
PADIDKYIIQRK [FMP46 C-terminal 12 aa] | 0.7015 ± 0.0048 | 0.672 ± 0.029
YNPPDYEPEAKK [PHM7 C-terminal 12 aa] | 0.6998 ± 0.0052 | 0.639 ± 0.008
LILHFVCLHFIN [OST2 C-terminal 12 aa] | 0.544 ± 0.017 | 0.184 ± 0.027
KVVTRSIVLWGV [YGL235W C-terminal 12 aa] | 0.632 ± 0.02 | 0.615 ± 0.016
FLVLKIIKALLW [MTC4 C-terminal 12 aa] | 0.526 ± 0.013 | 0.523 ± 0.026
GDEEDPNEEAAF [RPC31 C-terminal 12 aa] | 0.692 ± 0.01 | 0.673 ± 0.027
QILLDKLNAVKK [HIT1 C-terminal 12 aa] | 0.66 ± 0.03 | 0.653 ± 0.019
SWLYNFDELLWQ [ALG8 C-terminal 12 aa] | 0.761 ± 0.011 | 0.727 ± 0.021
IYHKDGNKVLKE [YDR391C C-terminal 12 aa] | 0.706 ± 0.053 | 0.6606 ± 0.0043
KKKNRSKIKFNY [PTH4 C-terminal 12 aa] | 0.724 ± 0.021 | 0.589 ± 0.011
